Where a chain is given by its changes, count along the chain named.
T1: recombinant human sFas receptor (human, UniProt P25445 17-173, limits assumed)
T1 construct: Bought reagent
T1 sequence (looked up): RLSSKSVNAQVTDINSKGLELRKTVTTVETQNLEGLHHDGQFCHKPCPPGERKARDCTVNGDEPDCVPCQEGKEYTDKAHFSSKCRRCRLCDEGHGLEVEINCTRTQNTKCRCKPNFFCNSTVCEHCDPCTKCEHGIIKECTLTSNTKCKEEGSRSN

T2: human recombinant FcgammaR receptor CD32aR (human, UniProt P12318 34-217, limits assumed)
T2 sequence (looked up): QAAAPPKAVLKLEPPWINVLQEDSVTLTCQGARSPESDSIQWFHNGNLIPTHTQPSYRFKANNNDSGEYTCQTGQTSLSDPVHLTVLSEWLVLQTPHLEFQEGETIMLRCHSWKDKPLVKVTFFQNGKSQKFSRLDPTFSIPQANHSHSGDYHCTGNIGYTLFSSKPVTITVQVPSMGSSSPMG

B1: H3 Vlambda-Ckappa chimeric Mab (antibody, human IgG1, kappa)
heavy: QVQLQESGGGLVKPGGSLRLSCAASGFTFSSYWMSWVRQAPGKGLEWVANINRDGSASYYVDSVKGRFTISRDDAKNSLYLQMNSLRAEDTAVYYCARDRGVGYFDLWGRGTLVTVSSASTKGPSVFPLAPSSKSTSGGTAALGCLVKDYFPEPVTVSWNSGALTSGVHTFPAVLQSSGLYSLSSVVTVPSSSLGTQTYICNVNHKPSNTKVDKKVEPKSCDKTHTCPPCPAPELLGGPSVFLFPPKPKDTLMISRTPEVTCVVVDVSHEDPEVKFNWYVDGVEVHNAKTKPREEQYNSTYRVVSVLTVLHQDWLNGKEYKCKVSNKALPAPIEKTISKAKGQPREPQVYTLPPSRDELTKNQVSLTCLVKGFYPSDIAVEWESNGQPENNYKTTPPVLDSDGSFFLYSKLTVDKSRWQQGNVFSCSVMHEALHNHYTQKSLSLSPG
light: QSALTQPASVSGSPGQSITISCTGTSSDVGGYNFVSWYQQHPGKAPKLMIYDVSDRPSGVSDRFSGSKSGNTASLIISGLQADDEADYYCSSYGSSSTHVIFGGGTKVTVLRTVAAPSVFIFPPSDEQLKSGTASVVCLLNNFYPREAKVQWKVDNALQSGNSQESVTEQDSKDSTYSLSSTLTLSKADYEKHKVYACEVTHQGLSSPVTKSFNRGEC
notes: IgG1 Mab format; chimeric light chain without stabilizing substitutions; also called chimera
B2: EP6b_B01 Vlambda-Ckappa chimeric Fab (Fab, V domains shown)
VH: QLQLQESGPGLVKPSETLSLTCTVSGASISANSYYGVWVRQSPGKGLEWVGSIAYRGNSNSGSTYYNPSLKSRATVSVDSSKNQVSLRLTSVTAADTALYYCARRQLLDDGTGYQWAAFDVWGQGTMVTVSS
VL: QSVLTQPPSVSEAPRQTVTISCSGNSSNIGRYPVNWYQQLPGKAPKLLIYSDNLRFSGVPDRFSGSKSGTTASLAIRDLLSEDEADYYCSTWDDTLEGWVFGGGTKVTVLR
notes: Parent chimeric Fab without stabilizing substitutions; also called chimera; VL-CK chimeric Fab
B3: EP6b_B01 designed Vlambda-Ckappa chimeric Fab, design 18 (E83F_D85T_T105E) (Fab, name in Kabat numbering, V domains shown)
VH: B2 VH
VL: B2 VL with E84F, D86T, T108E
B4: EP6b_B01 designed Vlambda-Ckappa chimeric Fab, design 26 (E83V_D85T) (Fab, name in Kabat numbering, V domains shown)
VH: B2 VH
VL: B2 VL with E84V, D86T
B5: EP6b_B01 designed Vlambda-Ckappa chimeric Fab, design 29 (E83V_D85T_T105E_V106I) (Fab, name in Kabat numbering, V domains shown)
VH: B2 VH
VL: B2 VL with E84V, D86T, T108E, V109I
B6: EP6b_B01 designed Vlambda-Ckappa chimeric Fab, design 32 (E83I_D85T) (Fab, name in Kabat numbering, V domains shown)
VH: B2 VH
VL: B2 VL with E84I, D86T
B7: EP6b_B01 designed Vlambda-Ckappa chimeric Fab, design 34 (E83I_D85T_T105E_V106I) (Fab, name in Kabat numbering, V domains shown)
VH: B2 VH
VL: B2 VL with E84I, D86T, T108E, V109I
B8: EP6b_B01 designed Vlambda-Ckappa chimeric Fab, design 37 (E83A_D85T) (Fab, name in Kabat numbering, V domains shown)
VH: B2 VH
VL: B2 VL with E84A, D86T
B9: EP6b_B01 wild-type lambda Fab (Fab, V domains shown)
VH: B2 VH
VL: B2 VL with R111G
notes: Truncated heavy chain (VH-CH1-upper IgG1 hinge, no His tag) and wild-type lambda light chain; also called WT
B10: H3 wild-type lambda Mab (antibody, human IgG1, lambda)
heavy: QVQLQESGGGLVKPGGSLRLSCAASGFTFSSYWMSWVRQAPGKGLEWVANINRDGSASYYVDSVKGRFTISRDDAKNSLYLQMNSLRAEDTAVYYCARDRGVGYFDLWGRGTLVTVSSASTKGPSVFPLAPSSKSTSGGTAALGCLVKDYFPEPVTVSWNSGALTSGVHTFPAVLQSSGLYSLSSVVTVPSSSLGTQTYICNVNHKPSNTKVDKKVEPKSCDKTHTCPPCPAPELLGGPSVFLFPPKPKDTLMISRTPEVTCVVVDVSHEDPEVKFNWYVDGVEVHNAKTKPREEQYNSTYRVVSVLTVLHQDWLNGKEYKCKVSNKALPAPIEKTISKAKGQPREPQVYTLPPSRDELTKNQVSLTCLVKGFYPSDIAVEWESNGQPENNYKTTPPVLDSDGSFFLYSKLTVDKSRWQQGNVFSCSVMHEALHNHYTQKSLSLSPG
light: QSALTQPASVSGSPGQSITISCTGTSSDVGGYNFVSWYQQHPGKAPKLMIYDVSDRPSGVSDRFSGSKSGNTASLIISGLQADDEADYYCSSYGSSSTHVIFGGGTKVTVLGQPKAAPSVTLFPPSSEELQANKATLVCLISDFYPGAVTVAWKADSSPVKAGVETTTPSKQSNNKYAASSYLSLTPEQWKSHRSYSCQVTHEGSTVEKTVAPTECS
notes: IgG1 Mab format; also called WT
B11: H3 designed Vlambda-Ckappa chimeric Mab, design 37 (E83A_D85T) (antibody, human IgG1, kappa, name in Kabat numbering)
heavy: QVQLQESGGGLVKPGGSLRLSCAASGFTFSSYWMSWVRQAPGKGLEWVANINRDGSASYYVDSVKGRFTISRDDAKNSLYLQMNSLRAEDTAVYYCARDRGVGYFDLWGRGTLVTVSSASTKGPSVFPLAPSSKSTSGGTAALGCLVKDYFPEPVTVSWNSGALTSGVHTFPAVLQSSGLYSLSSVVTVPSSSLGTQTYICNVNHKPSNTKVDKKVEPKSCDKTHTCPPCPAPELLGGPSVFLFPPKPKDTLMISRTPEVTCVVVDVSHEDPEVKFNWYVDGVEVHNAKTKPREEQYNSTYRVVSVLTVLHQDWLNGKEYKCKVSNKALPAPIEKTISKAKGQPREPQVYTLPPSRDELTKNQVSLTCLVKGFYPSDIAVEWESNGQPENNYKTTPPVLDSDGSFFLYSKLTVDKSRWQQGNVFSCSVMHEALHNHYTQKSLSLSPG
light: B1 light with E85A, D87T
notes: IgG1 Mab format
B12: H3 designed Vlambda-Ckappa chimeric Mab, design 29 (E83V_D85T_T105E_V106I) (antibody, human IgG1, kappa, name in Kabat numbering)
heavy: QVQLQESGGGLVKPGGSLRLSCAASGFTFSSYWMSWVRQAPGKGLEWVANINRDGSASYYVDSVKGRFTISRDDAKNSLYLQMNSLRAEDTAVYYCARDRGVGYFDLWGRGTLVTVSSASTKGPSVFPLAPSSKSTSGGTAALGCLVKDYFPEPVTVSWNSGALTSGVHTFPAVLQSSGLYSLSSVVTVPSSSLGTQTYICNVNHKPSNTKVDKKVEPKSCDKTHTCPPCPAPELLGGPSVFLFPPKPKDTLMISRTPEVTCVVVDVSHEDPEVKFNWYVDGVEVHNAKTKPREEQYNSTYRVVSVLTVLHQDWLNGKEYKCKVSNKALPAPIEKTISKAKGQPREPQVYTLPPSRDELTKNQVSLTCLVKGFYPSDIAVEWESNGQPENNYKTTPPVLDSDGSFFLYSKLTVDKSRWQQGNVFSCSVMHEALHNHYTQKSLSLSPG
light: B1 light with E85V, D87T, T109E, V110I
notes: IgG1 Mab format
B13: H3 designed Vlambda-Ckappa chimeric Mab, design 39 (E83A_D85T_T105E_V106I) (antibody, human IgG1, kappa, name in Kabat numbering)
heavy: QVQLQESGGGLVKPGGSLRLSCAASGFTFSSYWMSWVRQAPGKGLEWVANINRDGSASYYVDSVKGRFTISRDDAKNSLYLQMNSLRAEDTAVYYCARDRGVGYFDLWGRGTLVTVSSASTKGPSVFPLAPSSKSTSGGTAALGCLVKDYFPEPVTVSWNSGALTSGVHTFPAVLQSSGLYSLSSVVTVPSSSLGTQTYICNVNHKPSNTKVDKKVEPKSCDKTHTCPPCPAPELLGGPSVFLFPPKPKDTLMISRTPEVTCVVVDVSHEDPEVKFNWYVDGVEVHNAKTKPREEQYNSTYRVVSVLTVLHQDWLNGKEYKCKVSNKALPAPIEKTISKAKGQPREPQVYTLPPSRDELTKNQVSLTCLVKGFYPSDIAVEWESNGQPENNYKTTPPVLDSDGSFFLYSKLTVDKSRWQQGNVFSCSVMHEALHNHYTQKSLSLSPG
light: B1 light with E85A, D87T, T109E, V110I
notes: IgG1 Mab format
B14: H3 designed Vlambda-Ckappa chimeric Mab, design 26 (E83V_D85T) (antibody, human IgG1, kappa, name in Kabat numbering)
heavy: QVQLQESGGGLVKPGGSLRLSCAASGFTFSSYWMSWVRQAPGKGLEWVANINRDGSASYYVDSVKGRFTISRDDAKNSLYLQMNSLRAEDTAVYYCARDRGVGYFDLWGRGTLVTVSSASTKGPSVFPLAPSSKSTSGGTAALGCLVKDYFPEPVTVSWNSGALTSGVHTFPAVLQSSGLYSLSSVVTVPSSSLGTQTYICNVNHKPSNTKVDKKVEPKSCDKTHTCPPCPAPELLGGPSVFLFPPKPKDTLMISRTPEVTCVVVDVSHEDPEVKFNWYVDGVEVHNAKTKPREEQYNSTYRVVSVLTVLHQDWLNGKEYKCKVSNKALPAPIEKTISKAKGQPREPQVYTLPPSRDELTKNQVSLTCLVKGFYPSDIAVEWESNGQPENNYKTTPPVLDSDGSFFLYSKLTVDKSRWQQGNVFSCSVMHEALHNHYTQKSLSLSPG
light: B1 light with E85V, D87T
notes: IgG1 Mab format
B15: H3 designed Vlambda-Ckappa chimeric Mab, design 18 (E83F_D85T_T105E) (antibody, human IgG1, kappa, name in Kabat numbering, V domains shown)
VH: QVQLQESGGGLVKPGGSLRLSCAASGFTFSSYWMSWVRQAPGKGLEWVANINRDGSASYYVDSVKGRFTISRDDAKNSLYLQMNSLRAEDTAVYYCARDRGVGYFDLWGRGTLVTVSS
VL: QSALTQPASVSGSPGQSITISCTGTSSDVGGYNFVSWYQQHPGKAPKLMIYDVSDRPSGVSDRFSGSKSGNTASLIISGLQADDFATYYCSSYGSSSTHVIFGGGTKVEVLR
notes: IgG1 Mab format
B16: H3 designed Vlambda-Ckappa chimeric Mab, design 32 (E83I_D85T) (antibody, human IgG1, kappa, name in Kabat numbering)
heavy: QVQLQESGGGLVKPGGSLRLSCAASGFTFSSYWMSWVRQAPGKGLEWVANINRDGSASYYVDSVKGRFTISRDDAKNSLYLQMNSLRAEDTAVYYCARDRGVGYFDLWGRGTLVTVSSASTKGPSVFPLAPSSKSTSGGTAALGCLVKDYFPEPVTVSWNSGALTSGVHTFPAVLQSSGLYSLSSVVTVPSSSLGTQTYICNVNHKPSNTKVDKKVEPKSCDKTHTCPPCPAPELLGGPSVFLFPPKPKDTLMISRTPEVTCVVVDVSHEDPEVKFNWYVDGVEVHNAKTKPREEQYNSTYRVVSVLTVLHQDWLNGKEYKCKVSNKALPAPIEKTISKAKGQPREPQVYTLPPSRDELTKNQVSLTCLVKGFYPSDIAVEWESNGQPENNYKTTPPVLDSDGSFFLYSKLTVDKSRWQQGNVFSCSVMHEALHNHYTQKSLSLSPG
light: B1 light with E85I, D87T
notes: IgG1 Mab format
B17: H3 designed Vlambda-Ckappa chimeric Mab, design 34 (E83I_D85T_T105E_V106I) (antibody, human IgG1, kappa, name in Kabat numbering)
heavy: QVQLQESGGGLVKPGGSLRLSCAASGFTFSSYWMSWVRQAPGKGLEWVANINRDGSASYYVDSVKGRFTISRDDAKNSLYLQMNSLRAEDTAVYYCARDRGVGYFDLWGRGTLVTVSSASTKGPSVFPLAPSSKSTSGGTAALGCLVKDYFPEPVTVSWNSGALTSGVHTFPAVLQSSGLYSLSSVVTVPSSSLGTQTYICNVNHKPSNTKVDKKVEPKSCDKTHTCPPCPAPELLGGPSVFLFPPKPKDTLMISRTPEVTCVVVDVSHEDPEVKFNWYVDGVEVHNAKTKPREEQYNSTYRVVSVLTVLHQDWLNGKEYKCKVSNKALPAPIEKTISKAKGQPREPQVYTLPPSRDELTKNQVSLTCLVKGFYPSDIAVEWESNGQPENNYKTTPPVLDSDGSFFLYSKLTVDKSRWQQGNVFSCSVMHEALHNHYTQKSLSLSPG
light: B1 light with E85I, D87T, T109E, V110I
notes: IgG1 Mab format

The binders below were run against T3, recombinant human HER3 (human, UniProt P21860 20-643) (assay: SPR).
T3 construct: Bought reagent

Row | Binder | fold difference of KD against the wild-type lambda Mab control
1 | B1 | ≤ 1.5 fold

Each binder was assayed against T1, recombinant human sFas receptor (assay: SPR (Biacore T200), Fas immobilized, Fab analyte).
Experimental: Fas affinity determination was carried out as follows. Fas was diluted in 10 mM acetate buffer pH 5.5 and directly immobilized via amine coupling onto a CMS Series S sensor chip. […] The reference flow cell was left empty (ethanolamine blocked) to use as a blank control. Fabs were injected over both the ethanolamine-blocked reference surface and the Fas surface for kinetic analysis using single cycle kinetics. […] Fas surfaces were regenerated using 2 cycles of 10 mM glycine pH 1.5 for 120 s at 30 pt/min to prepare the surfaces for the next injection cycle. At least two mock-buffer injections were performed for each analyte injection to be used for referencing. The resulting single cycle kinetics sensorgrams were analyzed using Biacore T200 BiaEvaluation software version 3.0 and fit to the 1:1 binding model.

Row | Binder | Kd
2 | B2 | 0.0512 nM
3 | B3 | 0.0449 nM
4 | B4 | 0.0486 nM
5 | B5 | 0.0479 nM
6 | B6 | 0.0471 nM
7 | B7 | 0.0484 nM
8 | B8 | 0.0492 nM
9 | B9 | 0.0546 nM

Each binder was assayed against T4, human recombinant FcRn (human, UniProt P55899 24-297; P61769 21-119, limits assumed) (assay: SPR (ProteOn), FcRn immobilized, Mab analyte, pH 5.8).
T4 construct: also called neonatal receptor
T4 sequence (P55899 24-297 limits assumed, chain 1 of 2): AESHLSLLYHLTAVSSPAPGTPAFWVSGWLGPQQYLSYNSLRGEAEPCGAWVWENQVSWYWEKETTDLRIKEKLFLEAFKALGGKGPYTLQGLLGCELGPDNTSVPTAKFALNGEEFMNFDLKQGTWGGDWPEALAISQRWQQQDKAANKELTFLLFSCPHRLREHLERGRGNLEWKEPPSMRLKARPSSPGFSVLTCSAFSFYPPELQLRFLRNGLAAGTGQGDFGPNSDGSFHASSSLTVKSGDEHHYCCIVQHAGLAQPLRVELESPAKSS
T4 sequence (P61769 21-119 limits assumed, chain 2 of 2): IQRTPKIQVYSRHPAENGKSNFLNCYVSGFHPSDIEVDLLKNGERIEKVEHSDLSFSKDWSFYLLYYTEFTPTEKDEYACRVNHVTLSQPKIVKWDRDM
Experimental: FcRn affinity determination was carried out as follows. FcRn surface was generated using a GLC sensorchip activated by a 1:10 dilution of the standard BioRad sNHS/EDC solutions injected for 140s at 100 μL/min in the ligand (vertical) direction. Immediately after the activation, 10 microg/mL solution of FcRn in 10 mM NaOAc pH 4.5 was injected in the ligand (vertical) direction at a flow rate of 25 microL/min for 120s until approximately 2000 resonance units (RUs) were immobilized. Remaining active groups were quenched by a 140s injection of 1M ethanolamine at 30 μL/min also in the ligand direction. The running buffer used on the FcRn surface was PBST pH 5.8. The screening of the Mabs for binding to FcRn was performed by injection of purified Mabs in the analyte (horizontal) direction. Firstly, two buffer injections for 30s at 100 microL/min in the analyte (horizontal) direction were used to stabilize the baseline. Five concentrations of a three-fold dilution series of each Mab starting at 100 nM with a blank buffer control were simultaneously injected at 50 microL/min for 120 s with a 10 minute dissociation phase, resulting in a set of binding sensorgrams with a buffer reference. […] Sensorgrams were aligned and double-referenced using the buffer blank injection and interspots, and the resulting sensorgrams were analyzed using ProteOn Manager software v3.1. The double-referenced sensorgrams were fit to the Langmuir binding model.

Row | Binder | Kd
10 | B10 | 48.6 nM
11 | B11 | 80.2 nM
12 | B1 | 74.6 nM
13 | B12 | 86.1 nM
14 | B13 | 96.7 nM

These binders were tested against T2, human recombinant FcgammaR receptor … (assay: SPR (ProteOn), Mab captured via anti-human Fc, FcgammaR analyte).
Experimental: (§1) Goat polyclonal anti-human Fc antibody was purchased from Jackson Immuno Research Laboratories Inc. (West Grove, Pa.). […] Human recombinant FcγR receptors: CD16aV, CD32bF, CD32aR, and CD32aH were expressed as constructs containing a His10-tag at the C-terminus and purified by Ni-affinity chromatography followed by His-tag removal and SEC purification.
(§2) FcγR affinity determination was carried out as follows. The screening of Mabs for binding to various FcγR receptors occurred in two steps: an indirect capture of Mab samples onto the anti-human Fc-specific polyclonal antibody surface, followed by the injection of five concentrations of each of FcγR receptors. The anti-human Fc surface was prepared on a GLC sensorchip by amine coupling. GLC sensorchip surface was activated by a 1:10 dilution of the standard BioRad sNHS/EDC solutions injected for 140s at 100 μL/min in the analyte (horizontal) direction. Immediately after the activation, 25 microg/mL solution of anti-human Fc in 10 mM NaOAc pH 4.5 was injected in the analyte direction at a flow rate of 25 microL/min for 240s until approximately 4500 or 2500 resonance units (RUs) were immobilized. Remaining active groups were quenched by a 300s injection of 1M ethanolamine at 30 μL/min also in the analyte direction. Mabs for analysis were indirectly captured onto the anti-human Fc surface by injecting 10 microg/ml solutions in the ligand (vertical) direction at a flow rate of 25 microL/min for 240s. Each of the FcγR receptors was subsequently injected in the analyte (horizontal) direction. Firstly, two buffer injections for 30s at 100 microL/min in the analyte (horizontal) direction were used to stabilize the baseline. Five concentrations of a three-fold dilution series of each of the four FcγR receptors starting at 10 μM with a blank buffer control were then simultaneously injected at 50 microL/min for 120 s with a 3 minute dissociation phase, resulting in a set of binding sensorgrams with a buffer reference. […] Sensorgrams were aligned and double-referenced using the buffer blank injection and interspots, and the resulting sensorgrams were analyzed using ProteOn Manager software v3.1.

Row | Binder | Kd
15 | B10 | 3400 nM
16 | B11 | 3400 nM
17 | B1 | 4100 nM
18 | B12 | 4900 nM
19 | B13 | 3100 nM

These binders were tested against human recombinant FcgammaR receptor CD16aV (human, UniProt P08637 17-208, limits assumed) in the same assay as above.
Sequence of human recombinant FcgammaR receptor CD16aV (P08637 17-208 F176V limits assumed): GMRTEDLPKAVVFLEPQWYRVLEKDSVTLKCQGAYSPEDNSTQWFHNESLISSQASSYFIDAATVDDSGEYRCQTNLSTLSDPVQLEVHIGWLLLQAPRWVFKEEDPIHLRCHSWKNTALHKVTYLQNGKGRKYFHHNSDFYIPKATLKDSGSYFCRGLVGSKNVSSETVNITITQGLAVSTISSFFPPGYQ
Experimental: as §1, §2

Row | Binder | Kd
20 | B10 | 1100 nM
21 | B11 | 1300 nM
22 | B1 | 1200 nM
23 | B12 | 1100 nM
24 | B13 | 1400 nM

These binders were tested against T3, recombinant human HER3 (assay: SPR (ProteOn), Mab captured via anti-human Fc, HER3 analyte).
Experimental: HER3 affinity determination in Mabs was carried out as follows. The screening of Mabs for binding to HER3 antigen occurred in two steps: an indirect capture of Mabs onto the anti-human Fc-specific polyclonal antibody surface, followed by the injection of five concentrations of HER3. The anti-human Fc surface was prepared on a GLC sensorchip by amine coupling. GLC sensorchip surface was activated by a 1:10 dilution of the standard BioRad sNHS/EDC solutions injected for 140s at 100 pt/min in the analyte (horizontal) direction. Immediately after the activation, 25 microg/mL solution of anti-human Fc in 10 mM NaOAc pH 4.5 was injected in the ligand (vertical) direction at a flow rate of 25 microL/min for 240s until approximately 3000 resonance units (RUs) were immobilized. Remaining active groups were quenched by a 140s injection of 1M ethanolamine at 100 μL/min also in the analyte direction. Mabs for analysis were indirectly captured onto the anti-Fc surface by injecting 20 microg/mL solutions in the ligand (vertical) direction at a flow rate of 25 microL/min for 240s. HER3 was subsequently injected in the analyte (horizontal) direction. Firstly, two buffer injections for 30s at 100 microL/min in the analyte (horizontal) direction were used to stabilize the baseline. […] Sensorgrams were aligned and double-referenced using the buffer blank injection and interspots, and the resulting sensorgrams were analyzed using ProteOn Manager software v3.1. The double-referenced sensorgrams were fit to the Langmuir binding model.

Row | Binder | Kd
25 | B10 | 85 nM
26 | B11 | 67 nM
27 | B1 | 63 nM
28 | B12 | 64 nM
29 | B13 | 61 nM
30 | B14 | 56 nM
31 | B15 | 66 nM
32 | B16 | 67 nM
33 | B17 | 60 nM
